T1: recombinant human complement component C1s (rhC1s) (human, UniProt P09871 16-688)
T1 sequence (looked up): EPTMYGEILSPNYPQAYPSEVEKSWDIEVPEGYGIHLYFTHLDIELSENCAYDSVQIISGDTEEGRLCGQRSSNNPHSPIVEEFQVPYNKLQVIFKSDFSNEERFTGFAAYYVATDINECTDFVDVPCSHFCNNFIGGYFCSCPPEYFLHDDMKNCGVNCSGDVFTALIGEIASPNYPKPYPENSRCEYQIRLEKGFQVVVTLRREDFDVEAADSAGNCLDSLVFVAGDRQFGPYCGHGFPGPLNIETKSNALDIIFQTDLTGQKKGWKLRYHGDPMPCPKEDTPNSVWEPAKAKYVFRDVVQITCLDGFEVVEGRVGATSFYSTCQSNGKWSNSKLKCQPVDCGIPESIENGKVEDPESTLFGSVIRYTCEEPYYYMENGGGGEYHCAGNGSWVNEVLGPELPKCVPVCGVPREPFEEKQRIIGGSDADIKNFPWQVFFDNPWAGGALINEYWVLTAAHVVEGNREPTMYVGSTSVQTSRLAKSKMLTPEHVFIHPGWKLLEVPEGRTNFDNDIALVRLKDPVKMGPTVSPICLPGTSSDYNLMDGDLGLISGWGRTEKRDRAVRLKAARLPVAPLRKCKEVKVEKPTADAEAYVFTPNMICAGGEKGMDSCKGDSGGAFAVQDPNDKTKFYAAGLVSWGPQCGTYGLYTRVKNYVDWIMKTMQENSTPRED

T2: Pro-C1s
T2 construct: also called purified pro-C1s protein
T2 chain: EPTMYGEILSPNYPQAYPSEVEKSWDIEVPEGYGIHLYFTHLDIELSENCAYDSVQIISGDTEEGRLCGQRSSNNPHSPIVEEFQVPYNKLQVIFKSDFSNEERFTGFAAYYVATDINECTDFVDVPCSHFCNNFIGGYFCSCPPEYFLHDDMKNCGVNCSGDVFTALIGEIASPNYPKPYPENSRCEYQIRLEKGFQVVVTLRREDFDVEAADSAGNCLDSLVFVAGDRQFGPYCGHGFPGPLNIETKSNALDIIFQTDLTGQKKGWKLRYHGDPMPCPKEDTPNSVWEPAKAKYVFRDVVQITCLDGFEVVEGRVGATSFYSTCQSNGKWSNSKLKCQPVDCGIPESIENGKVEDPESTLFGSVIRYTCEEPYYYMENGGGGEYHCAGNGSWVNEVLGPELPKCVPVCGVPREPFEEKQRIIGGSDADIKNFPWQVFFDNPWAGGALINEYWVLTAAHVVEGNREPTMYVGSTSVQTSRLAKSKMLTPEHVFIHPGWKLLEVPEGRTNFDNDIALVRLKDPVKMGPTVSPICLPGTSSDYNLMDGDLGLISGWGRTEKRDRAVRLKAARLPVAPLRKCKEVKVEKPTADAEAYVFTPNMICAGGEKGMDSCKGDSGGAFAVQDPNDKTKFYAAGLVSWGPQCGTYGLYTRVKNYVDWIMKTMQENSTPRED

T3: purified human activated C1s protein, two-chain form (Homo sapiens, UniProt P09871 16-688)
T3 construct: Purified protein bought from EMD Millipore; Biotin-labeled in the clone screen; also called active C1s; native C1s protein
T3 sequence: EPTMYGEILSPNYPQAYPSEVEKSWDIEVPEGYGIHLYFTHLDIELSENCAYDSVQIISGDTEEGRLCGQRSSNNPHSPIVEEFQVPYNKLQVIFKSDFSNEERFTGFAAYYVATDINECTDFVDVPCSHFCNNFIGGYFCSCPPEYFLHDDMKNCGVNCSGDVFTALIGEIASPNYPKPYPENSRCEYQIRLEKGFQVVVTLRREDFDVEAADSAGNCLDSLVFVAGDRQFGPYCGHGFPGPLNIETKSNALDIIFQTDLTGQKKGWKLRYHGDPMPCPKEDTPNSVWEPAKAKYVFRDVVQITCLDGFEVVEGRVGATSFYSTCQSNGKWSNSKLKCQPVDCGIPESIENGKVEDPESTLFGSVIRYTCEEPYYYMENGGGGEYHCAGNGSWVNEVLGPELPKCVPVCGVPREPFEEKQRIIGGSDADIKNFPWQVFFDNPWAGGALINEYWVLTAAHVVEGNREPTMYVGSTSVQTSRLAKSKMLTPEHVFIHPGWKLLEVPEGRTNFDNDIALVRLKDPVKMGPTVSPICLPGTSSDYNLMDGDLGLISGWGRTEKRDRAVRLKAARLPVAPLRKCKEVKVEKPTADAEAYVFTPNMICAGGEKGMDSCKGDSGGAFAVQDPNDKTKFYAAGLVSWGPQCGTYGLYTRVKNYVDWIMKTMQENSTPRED


Experiments:
[1] = target: T1, recombinant human complement component …; assay: cell-based or functional assay
[2] = target: T1, recombinant human complement component …; assay: cell-based or functional assay; remark: listed apart in the source
Pro-C1s = target: T2, Pro-C1s; assay: bio-layer interferometry (BLI), kinetic analysis
[3] = target: T3, purified human activated C1s protein, …; assay: bio-layer interferometry (BLI), kinetic analysis

| inhibition of C1s protease activity (relative to nafamostat) [1] | Inhibition of C1s Protease Activity (%), single point with clone supernatant, relative to 100 nM nafamostat [2] | Kd (Pro-C1s) | koff (Pro-C1s) | kon (Pro-C1s) | Kd [3] | koff [3] | kon [3] | Binder |
| --- | --- | --- | --- | --- | --- | --- | --- | --- |
| > 50% | 68% | 1.89 nM | 0.000395 s⁻¹ | 209000 M⁻¹ s⁻¹ | 1.98 nM | 0.00102 s⁻¹ | 517000 M⁻¹ s⁻¹ | antibody IPN-M18 (antibody, V domains shown, Mouse monoclonal antibody (NZBW hybridoma)) VH: EVQLQQSGPELVKPGASVKISCKASGYSFTGYYIHWVKQSPEKSLEWIGEINPTTNDTTYNQKFKAKATLTVDKSSNTAYMQLKSLTSEDSAVYYCSRDISGPAWFAYWGQGTLVTVSA VL: DIVLTQTTAIMSASPGEKVTMTCSASSSISYMYWFQQKPGTSPKRWIYDTSKLASGVPARFSGSGSGTSYSLTISTMEAEDAATYYCHQRSSDPTFGGGTKLEINR |
| > 50% | 69% | 4.69 nM | 0.000299 s⁻¹ | 63700 M⁻¹ s⁻¹ | 0.608 nM | 0.000361 s⁻¹ | 594000 M⁻¹ s⁻¹ | antibody IPN-M9 (antibody, V domains shown, Mouse monoclonal antibody (NZBW hybridoma)) VH: QVQLQQPGAELVRPGASVKLSCKVSGYTFTRYWMHWVKQRPGQGLEWIGEINPSNSDTDYNEEFKSKATLTVDKSSSTAYMHLSSLTSEDSAVYYCTIDDSAYGWFAYWGQGTLVTVSA VL: DIVMTQSPAIMSASPGERVTMTCSASSSISYMHWYHQKPGTSPKRWIYDTSKLASGVPARFSGSGSGTSYSLTISSMEAEDAATYYCHQRSSFPTFGAGTKLELK |
| > 50% | 68% | 4.46 nM | 0.00036 s⁻¹ | 80800 M⁻¹ s⁻¹ | 1.01 nM | 0.000499 s⁻¹ | 492000 M⁻¹ s⁻¹ | antibody IPN-M24 (antibody, V domains shown, Mouse monoclonal antibody (NZBW hybridoma)) VH: EVKLQQSGAELVRPGVSVKISCKVSGYTFTDYAMHCVKQSHAKSLEWIGVISIYNGDASYNQKFKDKATMTVDKSSSTSYMDLARLTSEESAVYNCVREAPYLITTVFYAMDYWGQGTSVTVSS VL: DIVMTQSPAIMSASPGEKVTMTCSANSSISYMHWYQQKPGTSPKRWIYDTSKLASGVPTRFSGSGSGTSYSLTISSMEAEDAATYYCHQRSFYLTFGSGTKLEIK |
| > 50% | 73% | 5.55 nM | 0.000408 s⁻¹ | 73600 M⁻¹ s⁻¹ | 1.28 nM | 0.000594 s⁻¹ | 463000 M⁻¹ s⁻¹ | antibody IPN-M29 (antibody, V domains shown, Mouse monoclonal antibody (NZBW hybridoma)) VH: EVQLQQSGPELVKPGASVKISCKASGYSFTGFYMQWVKQSPEKNLEWIGEINPTTGDETYNQKFQAKATLTVDKSSSTAYMQLKSLTSEDSAVYFCASDFYDGSFAWFEYWGKDYLTVSA VL: DIVLTQSPVIMSASPGEKVTMTCSASSSISYIHWYQQKPGTSPKRWIYDTSKLASGVPARFSGSGSGTSYSLTISSMEAEDAATYYCHQRSSYLTFGSGTKLEIK |
| > 50% | 67% | 7.98 nM | 0.000339 s⁻¹ | 42500 M⁻¹ s⁻¹ | 0.607 nM | 0.000369 s⁻¹ | 608000 M⁻¹ s⁻¹ | antibody IPN-M10 (antibody, V domains shown, Mouse monoclonal antibody (NZBW hybridoma)) VH: QVQLQQPGAELVRPGASVKLSCKVSGYTFTRYWMHWVKQRPGQGLEWIGEINPSNSDTDYNEEFKSKATLTVDKSSSTAYMHLSSLTSEDSAVYYCTIDDSVYGWFAYWGQGTLVTVSA VL: DIVITQSPAIMSASPGERVTMTCSASSSISYMHWYHQKPGTSPKRWIYDTSKLASGVPARFSGSGSGTSYSLTISSMEAEDAATYYCHQRSSFPTFGAGTKLELK |
| > 50% | 74% | 7.17 nM | 0.000347 s⁻¹ | 48400 M⁻¹ s⁻¹ | 0.57 nM | 0.000353 s⁻¹ | 619000 M⁻¹ s⁻¹ | antibody IPN-M23 (antibody, V domains shown, Mouse monoclonal antibody (NZBW hybridoma)) VH: QVQLQQPGAELVRPGASVKLSCKVSGYTFTRYWMHWVKQRPGQGLEWIGEINPSNSDTDYNEEFKSKATLTVDKSSSTAYMHLSSLTSEDSAVYYCTIDDSVYGWFAYWGQGTLVTVSA VL: DIVMTQSPAIMFASPGERVTMTCSASSSISYMPWYPQKPGPSPKRWIYDTSKLASGVPARFSGSGFGTFYSLTISSMEAEDAAPYYCHQRSSFPPFGAGTKLELK |
| > 50% | 64% | 11.1 nM | 0.000283 s⁻¹ | 25400 M⁻¹ s⁻¹ | 0.593 nM | 0.000394 s⁻¹ | 664000 M⁻¹ s⁻¹ | antibody IPN-M27 (antibody, V domains shown, Mouse monoclonal antibody (NZBW hybridoma)) VH: QVQLQQSGAELVRPGASVKLSCKVSGYTFTRYWMHWVKQRPGQGLEWIGEINPSNSDTDYNEEFKSKATLTVDKSSSTAYMHLSNLTSEDSAVYYCTIDDSAYGWFAYWGQGTLVTVSA VL: DIVLTQSTAIMSASPGERVTMTCSASSSISYMHWYHQKPGTSPKRWIYDTSKLASGVPARFSGSGSGTSYSLAISSMEAEDAATYYCHQRSSFPTFGAGTKLELK |
| > 50% | 79% | 92.5 nM | 0.000392 s⁻¹ | 4120 M⁻¹ s⁻¹ | 0.26 nM | 0.000213 s⁻¹ | 817000 M⁻¹ s⁻¹ | antibody IPN-M1 (antibody, V domains shown, Mouse monoclonal antibody (NZBW hybridoma); of the 17, thirteen were IgG2a, one IgG2b, three IgG1; Same VL and VH as IPN-M3 and IPN-M13) VH: EVQLQQSGAELVRPGASVKLSCTASGFNIKDDYIHWVKQRPEQGLEWIGRIDPADDHTKYAPKFQDKATMTADTSSNTACLQLNSLTSEDTAVYYCAIYGSGWAWFPYWGQGTLVSVSA VL: DIVLTQSTDYLAVSLGQRATISCKASQSVDYDGDSYMNWYQQKPGQPPKLLIYAASNLESGIPARFSGSGSGTDFTLNIHPVEEEDAATYYCQQSNEDPWTFGGGTKLEIK |
| > 50% | 100% | 3.37 nM | 0.000194 s⁻¹ | 57500 M⁻¹ s⁻¹ | 0.172 nM | 0.000149 s⁻¹ | 858000 M⁻¹ s⁻¹ | antibody IPN-M15 (antibody, V domains shown, Mouse monoclonal antibody (NZBW hybridoma)) VH: EVKLEQSGAELVRPGASVKLSCTASGFNIKDDYIHWVKQRPEQGLEWIGRIDPADDHTKYAPKFQDKATMTADTSSNTACLQLNSLTSEDTAVYYCAIYGSGWAWFPYWGQGTLVSVSA VL: FALMTQSTDYLAVSLGQRATISCKASQSVDYDGDSYMNWYQQKPGQPPKLLIYAASNLESGIPTRFSGSGFGTDFTLNIHPVEEEDAATYYCQQSNEDPWTFGGGPKLEIK |
| > 50% | 92% | 16.7 nM | 0.000178 s⁻¹ | 10600 M⁻¹ s⁻¹ | 0.236 nM | 0.000215 s⁻¹ | 914000 M⁻¹ s⁻¹ | antibody IPN-M28 (antibody, V domains shown, Mouse monoclonal antibody (NZBW hybridoma)) VH: EVQLQQSGAELVRPGASVKLSCTASGFNIKDDYIHWVKQRPEQGLEWIGRIDPADDHTKYAPKFQDKATMTADTSSNTACLQLNSLTSEDTAVYYCAIYGSGWAWFPYWGQGTLVSVSA VL: DIVLTQTPDYLAVSLGQRATISCKASQSVDYDGDSYMNWYQQKPGQPPKLLIYAASNLESGIPARFSGSGSGTDFTLNIHPVEEEDAATYYCQQSNEDPWTFGGGTKLEIK |
